Measurements taken from article doi:10.64898/2025.12.15.694324, “Dimerization of human PARP15 is required for NAD^+ binding and automodification” (bioRxiv, 2025).

Target: the molecule itself
Assay: SEC-MALS; 50 µg of each sample, Superdex 200 increase 10/300, 30 mM HEPES pH 7.5, 300 mM NaCl, 5 % glycerol, 0.5 mM TCEP

B1: PARP15^FL WT, full-length long isoform 1 of human PARP15 (enzyme, UniProt Q460N3 1-678, looked up)
chain: MAAPGPLPAAALSPGAPTPRELMHGVAGVTSRAGRDREAGSVLPAGNRGARKASRRSSSRSMSRDNKFSKKDCLSIRNVVASIQTKEGLNLKLISGDVLYIWADVIVNSVPMNLQLGGGPLSRAFLQKAGPMLQKELDDRRRETEEKVGNIFMTSGCNLDCKAVLHAVAPYWNNGAETSWQIMANIIKKCLTTVEVLSFSSITFPMIGTGSLQFPKAVFAKLILSEVFEYSSSTRPITSPLQEVHFLVYTNDDEGCQAFLDEFTNWSRINPNKARIPMAGDTQGVVGTVSKPCFTAYEMKIGAITFQVATGDIATEQVDVIVNSTARTFNRKSGVSRAILEGAGQAVESECAVLAAQPHRDFIITPGGCLKCKIIIHVPGGKDVRKTVTSVLEECEQRKYTSVSLPAIGTGNAGKNPITVADNIIDAIVDFSSQHSTPSLKTVKVVIFQPELLNIFYDSMKKRDLSASLNFQSTFSMTTCNLPEHWTDMNHQLFCMVQLEPGQSEYNTIKDKFTRTCSSYAIEKIERIQNAFLWQSYQVKKRQMDIKNDHKNNERLLFHGTDADSVPYVNQHGFNRSCAGKNAVSYGKGTYFAVDASYSAKDTYSKPDSNGRKHMYVVRVLTGVFTKGRAGLVTPPPKNPHNPTDLFDSVTNNTRSPKLFVVFFDNQAYPEYLITFTA
modifications: weakly MARylated from expression in Sf21 insect cells
notes: PARP15, human, full-length canonical isoform 1 (the longer isoform, both macrodomains present); Cloned in pFastBac-His-MBP (#30116); tags cleaved with TEV protease; source: Sf21 insect cells (baculovirus), purified (Ni-NTA, amylose resin, TEV cleavage, SEC)
  stoichiometry N: ~2
